Columns and labels:
[1] = system: BJAB; assay: In vitro cell proliferation assay, ADC killing of BJAB cells; assay type: cell-based, human
[2] = system: WSU-DLCL2; assay: In vitro cell proliferation assay, ADC killing of WSU-DLCL2 cells; assay type: cell-based, human
[3] = system: Jurkat; assay: In vitro cell proliferation assay, ADC killing of Jurkat cells; assay type: cell-based
[4] = system: NCI-H441; assay: EdU Prolif assay, NCI-H441; assay type: cell-based; conditions: NCI-H441 cells

B1: ADC1-1: Anti-Napi2b 10H1.11.4B LC K149C antibody conjugated with the Example 1 linker-drug MC-Sq-Cit-PAB Dolastatin 10 (conjugate)
VH: EVQLVESGGGLVQPGGSLRLSCAASGFSFSDFAMSWVRQAPGKGLEWVATIGRVAFHTYYPDSMKGRFTISRDNSKNTLYLQMNSLRAEDTAVYYCARHRGFDVGHFDFWGQGTLVTVSS
VL: DIQMTQSPSSLSASVGDRVTITCRSSETLVHSSGNTYLEWYQQKPGKAPKLLIYRVSNRFSGVPSRFSGSGSGTDFTLTISSLQPEDFATYYCFQGSFNPLTFGQGTKVEIKR
**Q.** How did the “BJAB IC50” value [1] turn out when B1 was run?
**A.** Its value is over 20 µg/mL.

**Q.** What about the IC50 [1] of the same molecule?
**A.** The IC50 was over 133 nM.

**Q.** What about the IC50 [2] of the same molecule?
**A.** Its IC50 is 44.2 nM.

**Q.** And the “WSU-DLCL2 IC50” value [2]?
**A.** Its value is 6.63 µg/mL.

**Q.** What about the IC50 [3] of the same molecule?
**A.** The IC50 was 73.6 nM.

**Q.** What about the “Jurkat IC50” value [3] of the same molecule?
**A.** The value was 11.04 µg/mL.

**Q.** And the IC50 [4]?
**A.** The IC50 was 95.4 nM.

**Q.** What about the “NCI-H441 IC50” value [4] of the same molecule?
**A.** Its value is 14.31 µg/mL.

Reference: patent US11104673B2, “Quaternary amine compounds and antibody-drug conjugates thereof” (priority 2014, dated 2021)
